{"source": "patent EP4538288A1", "target": "cynomolgus CD40 overexpressed on CHO cells (cynomolgus) [GFP: P42212]", "assay": "flow cytometry on CHO cells expressing cynomolgus CD40", "data": [{"substance": "CP870893-IgG2 (antibody)", "values": [{"measurement": "EC50", "result": 7.28, "unit": "nM"}]}]}
